In publication PMC6648332 (Nucleic Acids Research, 2019):

Target: the molecule itself
Experiment: SEC

B1: 3′-5′ exonuclease domain of human EXD2 (residues 76−295, EXD2-exo) (domain or fragment, UniProt Q9NVH0 76-295, looked up)
chain: KAKVVTVSQEAEWDQIEPLLRSELEDFPVLGIDCEWVNLEGKASPLSLLQMASPSGLCVLVRLPKLICGGKTLPRTLLDILADGTILKVGVGCSEDASKLLQDYGLVVRGCLDLRYLAMRQRNNLLCNGLSLKSLAETVLNFPLDKSLLLRCSNWDAETLTEDQVIYAARDAQISVALFLHLLGYPFSRNSPGEKNDDHSSWRKVLEKCQGVVDIPFRSK
- stoichiometry N: 2
